B1: Homo 13A (219R02) (antibody, human IgG2, kappa, V domains shown)
VH: QVQLKQSGAELVKPGASVKLSCKASGYTFTNYWMHWVKLRPGQGFEWIGDINPSNGGTSYNEKFKRKATLTVDKSSSTAYMQLSSLTSEDSAVYYCTIHYYDNSYAMDYWGQGTSVTVSS
VL: DIVMTQSPDSLAVSLGERATISCRASESVDNYGISFMKWFQQKPGQPPKLLIYAASNQGSGVPDRFSGSGSGTDFTLTISSLQAEDVAVYYCQQSKEVPWTFGGGTKVEIKR
notes: also called 219R02 13A Homo; 219R0202 HC (with 13A mutation) expressed only with 21M18 LC
B2: 219R0302-21M18 single gene bispecific antibody (SGBSP) (bispecific antibody, human IgG2, kappa)
chain 1: not shown
chain 2: DIVMTQSPDSLAVSLGERATISCRASESVDNYGISFMKWFQQKPGQPPKLLIYAASNQGSGVPDRFSGSGSGTDFTLTISSLQAEDVAVYYCQQSKEVPWTFGGGTKVEIKRTVAAPSVFIFPPSDEQLKSGTASVVCLLNNFYPREAKVQWKVDNALQSGNSQESVTEQDSKDSTYSLSSTLTLSKADYEKHKVYACEVTHQGLSSPVTKSFNRGECGGGGSGGGGSGGGGSGGGGSGGGGSGGGGSQVQLVQSGAEVKKPGASVKISCKASGYSFTAYYIHWVKQAPGQGLEWIGYISSYNGATNYNQKFKGRVTFTTDTSTSTAYMELRSLRSDDTAVYYCARDYDYDVGMDYWGQGTLVTVSSASTKGPSVFPLAPCSRSTSESTAALGCLVKDYFPEPVTVSWNSGALTSGVHTFPAVLQSSGLYSLSSVVTVPSSNFGTQTYTCNVDHKPSNTKVDKTVERKCCVECPPCPAPPVAGPSVFLFPPKPKDTLMISRTPEVTCVVVDVSHEDPEVQFNWYVDGVEVHNAKTKPREEQFNSTFRVVSVLTVVHQDWLNGKEYKCKVSNKGLPAPIEKTISKTKGQPREPQVYTLPPSREEMTKNQVSLTCLVEGFYPSDIAVEWESNGQPENNYKTTPPMLDSDGSFFLYSELTVDKSRWQQGNVFSCSVMHEALHNHYTQKSLSLSPGK
notes: Heterodimer of two single-gene chains, anti-VEGF arm (13A) and anti-DLL4 arm (13B), IgG2; also called 219R0302_21M18 SGBSP; 219R0302-21M18 SGBSP

Columns and labels:
[1] = molecular target: T1, human VEGF (human, UniProt P15692-4 27-191); assay: Biacore dual targeting assay, high density VEGF surface, antibody first, then DLL4-Fc
T1 construct: Immobilised on a CM5 chip for Biacore; the same name is used for the rhVEGF of the HUVEC assay; also called hVEGF; rhVEGF
T1 sequence (P15692 other isoform, or with tags, fused parts or gaps limits assumed): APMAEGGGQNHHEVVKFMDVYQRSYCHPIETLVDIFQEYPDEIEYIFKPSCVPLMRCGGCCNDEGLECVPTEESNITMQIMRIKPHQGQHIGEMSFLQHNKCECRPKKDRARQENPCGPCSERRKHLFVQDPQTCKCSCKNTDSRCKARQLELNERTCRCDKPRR

[2] = molecular target: T2, full length human DLL4 on transfected human 293 HEK cells (human, UniProt Q9NR61 27-685); assay: flow cytometry on human 293 HEK cells transfected with full length human DLL4 and GFP; goat anti-human IgG H/L-PE
T2 construct: whole, on cells; also called hDLL4 transfected cells; human DLL4 transfected cells

[3] = molecular target: T1, human VEGF; assay: SPR (Biacore), VEGF surface; reference 219R0302 IgG
[4] = molecular target: T1, human VEGF; assay: SPR (Biacore), VEGF surface

| Binder | binding result [1] | binding result [2] | fold weaker binding affinity than 219R0302 [3] [fold] | Kd [4] [nM] |
| --- | --- | --- | --- | --- |
| B1 | binds | no binding (tested: log(nM) about 1.8 (about 60 nM)) | – | – |
| B2 | – | – | ~4 | 7.6 |
